Experiments:
[1] = molecular target: fluorescently labeled TLR4 (recombinant) (UniProt O00206 24-839, fluorescently labeled); assay: other fluorescence titration; fluorescently labeled TLR4 or CYBB titrated with unlabeled NAMPT; recombinant proteins; Kd by curve fit analysis; settings: both partners purified
[2] = molecular target: fluorescently labeled CYBB (recombinant) (UniProt P04839 1-570, fluorescently labeled); assay: as above; settings: both partners purified
fluorescently labeled CYBB (recombinant), sequence (P04839 whole entry): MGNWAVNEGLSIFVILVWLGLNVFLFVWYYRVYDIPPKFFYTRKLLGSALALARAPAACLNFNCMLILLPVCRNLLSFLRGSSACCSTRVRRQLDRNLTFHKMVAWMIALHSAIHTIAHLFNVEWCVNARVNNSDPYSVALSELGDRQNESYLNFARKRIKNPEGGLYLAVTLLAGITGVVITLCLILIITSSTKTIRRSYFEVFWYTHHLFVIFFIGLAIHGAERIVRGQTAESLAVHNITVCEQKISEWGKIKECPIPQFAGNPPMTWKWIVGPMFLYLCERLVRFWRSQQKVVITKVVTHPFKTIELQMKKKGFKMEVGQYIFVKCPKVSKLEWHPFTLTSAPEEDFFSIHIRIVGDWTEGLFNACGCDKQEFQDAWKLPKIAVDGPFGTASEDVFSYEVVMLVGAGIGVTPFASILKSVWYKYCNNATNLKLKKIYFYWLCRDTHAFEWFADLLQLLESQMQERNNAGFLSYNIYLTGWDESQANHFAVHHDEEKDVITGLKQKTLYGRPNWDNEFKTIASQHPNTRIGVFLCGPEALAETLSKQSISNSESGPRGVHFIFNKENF

B1: recombinant NAMPT protein (natural protein, UniProt P43490 1-491, looked up)
chain: MNPAAEAEFNILLATDSYKVTHYKQYPPNTSKVYSYFECREKKTENSKLRKVKYEETVFYGLQYILNKYLKGKVVTKEKIQEAKDVYKEHFQDDVFNEKGWNYILEKYDGHLPIEIKAVPEGFVIPRGNVLFTVENTDPECYWLTNWIETILVQSWYPITVATNSREQKKILAKYLLETSGNLDGLEYKLHDFGYRGVSSQETAGIGASAHLVNFKGTDTVAGLALIKKYYGTKDPVPGYSVPAAEHSTITAWGKDHEKDAFEHIVTQFSSVPVSVVSDSYDIYNACEKIWGEDLRHLIVSRSTQAPLIIRPDSGNPLDTVLKVLEILGKKFPVTENSKGYKLLPPYLRVIQGDGVDINTLQEIVEGMKQKMWSIENIAFGSGGGLLQKLTRDLLNCSFKCSYVVTNGLGINVFKDPVADPNKRSKKGRLSLHRTPAGNFVTLEEGKGDLEEYGQDLLHTVFKNGKVTKSYSFDEIRKNAQLNIELEAAHH
notes: recombinant NAMPT protein added to BMDMs and precipitated with anti-His; The His tag is known only from the anti-His precipitation; also called rNAMPT; eNAMPT; source: recombinant
[1]
  Kd: 219 nM
[2]
  Kd: 896 nM

From article PMC9774280, “Colon-Targeted eNAMPT-Specific Peptide Systems for Treatment of DSS-Induced Acute and Chronic Colitis in Mouse” (Antioxidants, 2022)
